{
  "source": "paper PMC2716513",
  "key": {"[1]": {"target": "ADAMTS13 (wild-type recombinant ADAMTS13 with a carboxy-terminal V5 tag) (UniProt Q76LX8)"}, "ADAMTS13 P475S mutant": {"target": "ADAMTS13 P475S mutant (UniProt Q76LX8)"}, "[2]": {"target": "ADAMTS13 (wild-type recombinant ADAMTS13 with a carboxy-terminal V5 tag) (UniProt Q76LX8)", "remark": "listed apart in the source"}},
  "data": [
    {"substance": "von Willebrand Factor (VWF) (from UniProt P04275 764-2813) (natural protein)", "values": [
      {"measurement": "fluorescence intensity of the mAb Wh-2-11-1 on wild-type ADAMTS13 (flow cytometry) on addition of VWF, fold increase (data not given)", "setting": "[1]", "result": 3.5, "unit": "fold"},
      {"measurement": "fluorescence intensity of the mAb Wh-2-11-1 on the P475S mutant ADAMTS13 (flow cytometry) on addition of VWF, fold increase (data not given)", "setting": "ADAMTS13 P475S mutant", "result": 1.9, "unit": "fold"},
      {"measurement": "reactivity of the mAb Wh2-11-1 to intracellular ADAMTS13 (flow cytometry, permeabilized HEK293 cells) after incubation with VWF at 37°C, fold increase", "setting": "[2]", "result": "> 10", "unit": "fold"}
    ]}
  ]
}
